From publication PMC10556615 (Proceedings of the National Academy of Sciences of the …, 2023)

Target: T1, Arabidopsis TIR1 (Transport Inhibitor Response 1), coexpressed with AtASK1 (Arabidopsis, UniProt Q570C0 1-594; Q39255 1-160)
T1 construct: a TEV site stands between the tags and TIR1; ASK1 (AtASK1), Arabidopsis, coexpressed with TIR1; a TEV site stands between the tag and ASK1; that the sample is the TIR1-ASK1 complex is surmised from the coexpression; Cleavage with TEV is not mentioned; also called AtTIR1; His10-eGFP-FLAG-(TEV)-AtTIR1
T1 sequence (looked up) 1: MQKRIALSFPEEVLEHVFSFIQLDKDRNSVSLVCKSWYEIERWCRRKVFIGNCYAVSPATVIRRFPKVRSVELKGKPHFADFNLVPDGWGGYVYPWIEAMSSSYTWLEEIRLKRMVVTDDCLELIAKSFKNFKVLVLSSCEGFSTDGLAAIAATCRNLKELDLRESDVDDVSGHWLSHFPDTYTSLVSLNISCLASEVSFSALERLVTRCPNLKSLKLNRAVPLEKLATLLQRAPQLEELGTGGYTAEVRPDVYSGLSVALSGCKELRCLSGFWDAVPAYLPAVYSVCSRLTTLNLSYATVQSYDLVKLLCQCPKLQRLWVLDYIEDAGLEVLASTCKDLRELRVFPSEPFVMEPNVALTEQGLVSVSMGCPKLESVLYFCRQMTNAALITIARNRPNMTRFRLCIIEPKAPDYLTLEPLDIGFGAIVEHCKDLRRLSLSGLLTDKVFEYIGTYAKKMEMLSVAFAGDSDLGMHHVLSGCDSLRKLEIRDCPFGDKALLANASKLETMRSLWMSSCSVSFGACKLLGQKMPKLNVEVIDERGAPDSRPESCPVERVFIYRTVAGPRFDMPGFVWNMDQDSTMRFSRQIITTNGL
T1 sequence (looked up) 2: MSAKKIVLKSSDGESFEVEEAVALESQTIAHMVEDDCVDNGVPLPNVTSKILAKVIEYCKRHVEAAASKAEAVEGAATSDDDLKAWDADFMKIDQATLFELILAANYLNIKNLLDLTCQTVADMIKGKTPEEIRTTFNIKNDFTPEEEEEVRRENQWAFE
Experiment: NMR titration; 1H-15N HSQC of 15N-labeled AXR3 DI/DII with unlabeled TIR1 added, 1:3 ratio, 5 to 10 µM TIR1, 4 °C, 20 mM sodium phosphate pH 6.0, 150 mM NaCl, 3 mM EDTA, 10 mM DTT; loss of HN cross peak intensity; no auxin
Conditions: both partners purified

B1: AXR3 DI/DII (N-terminal half of the Aux/IAA protein IAA17/AXR3, residues 1 to 101) (domain or fragment, UniProt P93830 1-101, looked up)
chain: MMGSVELNLRETELCLGLPGGDTVAPVTGNKRGFSETVDLKLNLNNEPANKEGSTTHDVVTFDSKEKSACPKDPAKPPAKAQVVGWPPVRSYRKNVMVSCQ
modifications: 15N isotopically labeled
notes: AXR3 (IAA17), Aux/IAA protein, domains I and II (DI/DII), residues 1 to 101, without the C-terminal PB1 domain; also called AXR3_(1-101); N-terminal half of AXR3; source: E. coli Rosetta DE3, minimal media with 15N ammonium chloride, purified (Co-NTA)
- binding result: binds
